Assay results as given in the supplement of paper PMC9112550, “Optimization of the antimicrobial peptide Bac7 by deep mutational scanning” (BMC Biology, 2022).

system: Escherichia coli TOP10; test: shrunken log2 fold change of peptide-encoding DNA abundance (4.5 h post-induction vs induction); higher = less antimicrobial activity (less host growth inhibition); settings: time post-induction: 4.5 h; library: site-saturation at positions 5, 18, 19, 20
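Note: peptides expressed intracellularly from a pBAD plasmid library in pooled LB shake-flask culture, induced with 0.3% L-arabinose, DNA abundance read by NGS, three biological replicates, DESeq2 with apeglm shrinkage.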

| Sequence | shrunken log2 fold change |
| --- | --- |
| RRIRTRPPRLPRPRPRPDMHPRP | -0.249 |
| RRIRMRPPRLPRPRPRPPHPPRP | 0.873 |
| RRIRYRPPRLPRPRPRPHTHPRP | -1.17 |
| RRIRRRPPRLPRPRPRPMTSPRP | -0.00455 |
| RRIRLRPPRLPRPRPRPELTPRP | 0.067 |
| RRIRMRPPRLPRPRPRPQKRPRP | 0.489 |
| RRIRTRPPRLPRPRPRPGDTPRP | -0.0833 |
| RRIRMRPPRLPRPRPRPEADPRP | 0.136 |
| RRIRPRPPRLPRPRPRPLNFPRP | -0.139 |
| RRIRNRPPRLPRPRPRPQNTPRP | -0.589 |
| RRIRLRPPRLPRPRPRPQRTPRP | 0.43 |
| RRIRPRPPRLPRPRPRPHAMPRP | -0.0838 |
| RRIRLRPPRLPRPRPRPFRTPRP | -0.0778 |
| RRIRRRPPRLPRPRPRPDLHPRP | 0.308 |
| RRIRRRPPRLPRPRPRPGTPPRP | 0.435 |
| RRIRGRPPRLPRPRPRPTKVPRP | 0.414 |
| RRIRRRPPRLPRPRPRPKQMPRP | 0.29 |
| RRIRWRPPRLPRPRPRPKQPPRP | 0.334 |
| RRIRHRPPRLPRPRPRPTFGPRP | 0.0378 |
| RRIRIRPPRLPRPRPRPIVPPRP | -0.407 |
| RRIRTRPPRLPRPRPRPVNSPRP | -0.342 |
| RRIRSRPPRLPRPRPRPSEMPRP | -0.114 |
| RRIRCRPPRLPRPRPRPDMLPRP | -0.283 |
| RRIRDRPPRLPRPRPRPMTEPRP | 0.0462 |
| RRIRYRPPRLPRPRPRPDMTPRP | -0.149 |

| Sequence | shrunken log2 fold change |
| --- | --- |
| RRIRYRPPRLPRPRPRPFFFPRP | -0.253 |
| RRIRQRPPRLPRPRPRPMHPPRP | 0.203 |
| RRIRQRPPRLPRPRPRPTHEPRP | 0.881 |
| RRIRQRPPRLPRPRPRPNVCPRP | -0.575 |
| RRIRWRPPRLPRPRPRPTFWPRP | 0.617 |
| RRIRFRPPRLPRPRPRPSIAPRP | -0.271 |
| RRIRLRPPRLPRPRPRPMTEPRP | -0.0455 |
| RRIRSRPPRLPRPRPRPNMMPRP | -0.166 |
| RRIRSRPPRLPRPRPRPCNYPRP | -0.455 |
| RRIRRRPPRLPRPRPRPFWQPRP | 0.0221 |
| RRIRERPPRLPRPRPRPLIMPRP | -0.781 |
| RRIRMRPPRLPRPRPRPRIAPRP | 0.786 |
| RRIRARPPRLPRPRPRPLNVPRP | -0.234 |
| RRIRDRPPRLPRPRPRPYRSPRP | -0.142 |
| RRIRYRPPRLPRPRPRPFVCPRP | -0.0345 |
| RRIRERPPRLPRPRPRPSFIPRP | -0.906 |
| RRIRDRPPRLPRPRPRPESCPRP | 0.629 |
| RRIRNRPPRLPRPRPRPESVPRP | -0.145 |
| RRIRIRPPRLPRPRPRPTSNPRP | -0.807 |
| RRIRRRPPRLPRPRPRPTFLPRP | 0.115 |
| RRIRCRPPRLPRPRPRPRVMPRP | 0.278 |
| RRIRHRPPRLPRPRPRPTKAPRP | -0.0108 |
| RRIRRRPPRLPRPRPRPLPRPRP | 0.748 |
| RRIRIRPPRLPRPRPRPIDNPRP | -0.0769 |
| RRIRDRPPRLPRPRPRPAPTPRP | 0.684 |

| Sequence | shrunken log2 fold change |
| --- | --- |
| RRIRQRPPRLPRPRPRPLWHPRP | -0.107 |
| RRIRMRPPRLPRPRPRPYCDPRP | -0.556 |
| RRIRSRPPRLPRPRPRPMHRPRP | 0.0682 |
| RRIRQRPPRLPRPRPRPCCTPRP | -0.137 |
| RRIRHRPPRLPRPRPRPIVSPRP | -0.0219 |
| RRIRHRPPRLPRPRPRPMSRPRP | -0.0252 |
| RRIRFRPPRLPRPRPRPPYEPRP | -0.202 |
| RRIRERPPRLPRPRPRPLMSPRP | -0.406 |
| RRIRFRPPRLPRPRPRPNITPRP | -0.633 |
| RRIRVRPPRLPRPRPRPDCQPRP | 0.00516 |
| RRIRRRPPRLPRPRPRPITIPRP | 0.035 |
| RRIRDRPPRLPRPRPRPVDVPRP | -0.185 |
| RRIRLRPPRLPRPRPRPVVAPRP | 0.0705 |
| RRIRERPPRLPRPRPRPQWRPRP | -0.0529 |
| RRIRVRPPRLPRPRPRPGTNPRP | -0.254 |
| RRIRGRPPRLPRPRPRPVQRPRP | 0.739 |
| RRIRTRPPRLPRPRPRPKHPPRP | -0.317 |
| RRIRARPPRLPRPRPRPVFVPRP | 0.179 |
| RRIRKRPPRLPRPRPRPLPYPRP | -0.0627 |
| RRIRPRPPRLPRPRPRPFAWPRP | 0.169 |
| RRIRLRPPRLPRPRPRPYECPRP | -0.352 |
| RRIRARPPRLPRPRPRPCTRPRP | -0.00176 |
| RRIRCRPPRLPRPRPRPHQCPRP | -0.24 |
| RRIRMRPPRLPRPRPRPTMGPRP | 0.253 |
| RRIRLRPPRLPRPRPRPTQIPRP | 0.14 |

| Sequence | shrunken log2 fold change |
| --- | --- |
| RRIRTRPPRLPRPRPRPFQGPRP | -0.00192 |
| RRIRWRPPRLPRPRPRPFGRPRP | -0.0754 |
| RRIRMRPPRLPRPRPRPRHNPRP | -0.0227 |
| RRIRCRPPRLPRPRPRPMYYPRP | -0.472 |
| RRIRQRPPRLPRPRPRPMDGPRP | -0.199 |
| RRIRSRPPRLPRPRPRPEFIPRP | 0.162 |
| RRIRYRPPRLPRPRPRPQTFPRP | -0.459 |
| RRIRNRPPRLPRPRPRPECFPRP | 0.0864 |
| RRIRKRPPRLPRPRPRPIVEPRP | 0.00111 |
| RRIRNRPPRLPRPRPRPQLRPRP | 0.0493 |
| RRIRHRPPRLPRPRPRPNNGPRP | 0.0142 |
| RRIRGRPPRLPRPRPRPERWPRP | 1.19 |
| RRIRNRPPRLPRPRPRPCGEPRP | 0.0369 |
| RRIRMRPPRLPRPRPRPWDNPRP | 0.013 |
| RRIRYRPPRLPRPRPRPFSRPRP | -0.625 |
| RRIRQRPPRLPRPRPRPRHPPRP | 0.283 |
| RRIRQRPPRLPRPRPRPQPLPRP | -0.0826 |
| RRIRRRPPRLPRPRPRPVPHPRP | 0.449 |
| RRIRQRPPRLPRPRPRPDEDPRP | -0.0326 |
| RRIRWRPPRLPRPRPRPLDQPRP | -0.0549 |
| RRIRCRPPRLPRPRPRPCRVPRP | -0.438 |
| RRIRMRPPRLPRPRPRPMKNPRP | 0.328 |
| RRIRPRPPRLPRPRPRPWMHPRP | 0.0123 |
| RRIRHRPPRLPRPRPRPWVGPRP | 0.0323 |
| RRIRCRPPRLPRPRPRPTRLPRP | 0.558 |

| Sequence | shrunken log2 fold change |
| --- | --- |
| RRIRTRPPRLPRPRPRPITYPRP | -0.0511 |
| RRIRLRPPRLPRPRPRPQNPPRP | -0.263 |
| RRIRPRPPRLPRPRPRPCVMPRP | -0.162 |
| RRIRRRPPRLPRPRPRPVFCPRP | 0.291 |
| RRIRRRPPRLPRPRPRPFCEPRP | 0.0918 |
| RRIRLRPPRLPRPRPRPFVWPRP | 0.118 |
| RRIRERPPRLPRPRPRPRDDPRP | 0.0953 |
| RRIRWRPPRLPRPRPRPTSHPRP | -0.26 |
| RRIRWRPPRLPRPRPRPMFDPRP | 0.139 |
| RRIRNRPPRLPRPRPRPQTCPRP | 0.0139 |
| RRIRMRPPRLPRPRPRPWTLPRP | -0.0343 |
| RRIRIRPPRLPRPRPRPPASPRP | 0.276 |
| RRIRCRPPRLPRPRPRPDYMPRP | -0.133 |
| RRIRKRPPRLPRPRPRPNYHPRP | -0.331 |
| RRIRYRPPRLPRPRPRPHNKPRP | -0.718 |
| RRIRIRPPRLPRPRPRPTTTPRP | -0.00987 |
| RRIRHRPPRLPRPRPRPYFAPRP | 0.52 |
| RRIRARPPRLPRPRPRPEKIPRP | 0.649 |
| RRIRKRPPRLPRPRPRPIAVPRP | 0.131 |
| RRIRARPPRLPRPRPRPVPWPRP | 0.452 |
| RRIRSRPPRLPRPRPRPQQNPRP | -0.0687 |
| RRIRHRPPRLPRPRPRPASQPRP | 0.045 |
| RRIRNRPPRLPRPRPRPAFIPRP | -0.579 |
| RRIRARPPRLPRPRPRPFWWPRP | 0.923 |
| RRIRYRPPRLPRPRPRPQSQPRP | -0.133 |

| Sequence | shrunken log2 fold change |
| --- | --- |
| RRIRGRPPRLPRPRPRPCKRPRP | 0.0886 |
| RRIRDRPPRLPRPRPRPVFMPRP | 0.11 |
| RRIRMRPPRLPRPRPRPHWPPRP | 1.1 |
| RRIRRRPPRLPRPRPRPSWNPRP | -0.157 |
| RRIRCRPPRLPRPRPRPSVKPRP | -0.765 |
| RRIRPRPPRLPRPRPRPWIGPRP | -0.0305 |
| RRIRVRPPRLPRPRPRPQWQPRP | 0.0741 |
| RRIRFRPPRLPRPRPRPMFDPRP | -0.155 |
| RRIRQRPPRLPRPRPRPEVFPRP | 0.0304 |
| RRIRSRPPRLPRPRPRPQPVPRP | 0.0573 |
| RRIRRRPPRLPRPRPRPWMAPRP | 0.0421 |
| RRIRVRPPRLPRPRPRPGEAPRP | 0.474 |
| RRIRQRPPRLPRPRPRPCCNPRP | -0.0838 |
| RRIRNRPPRLPRPRPRPIWHPRP | -0.356 |
| RRIRDRPPRLPRPRPRPVPAPRP | 0.341 |
| RRIRMRPPRLPRPRPRPFYHPRP | -0.537 |
| RRIRQRPPRLPRPRPRPMDWPRP | 0.0912 |
| RRIRPRPPRLPRPRPRPRQGPRP | 0.236 |
| RRIRFRPPRLPRPRPRPTLTPRP | 0.445 |
| RRIRRRPPRLPRPRPRPEWLPRP | 0.794 |
| RRIRIRPPRLPRPRPRPVHMPRP | -0.315 |
| RRIRYRPPRLPRPRPRPHWDPRP | -0.92 |
| RRIRYRPPRLPRPRPRPTACPRP | -0.13 |
| RRIRNRPPRLPRPRPRPITRPRP | -0.0765 |
| RRIRNRPPRLPRPRPRPNLVPRP | -0.0403 |
